The supplement of paper PMC10724198

How the values were obtained:
Saccharomyces cerevisiae [1] = assay: protein stability index of tFT-peptide fusion in wild type (PSI (0-1 scale)); higher = more stable (slower turnover); details: genetic background: wild type
Saccharomyces cerevisiae [2] = assay: protein stability index of tFT-peptide fusion in deletion strain of DOA10 (PSI (0-1 scale)); higher = more stable (slower turnover)
Method: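 MPS profiling in S. cerevisiae of two library types built from selected 12-aa C-degron peptides (IN1, IN2, LN1, LN3, VN2, R1-R5, W1-W3, Atg1 and Rpa12 C-termini): saturation mutagenesis libraries and C-terminal +1 capping libraries (13 aa). Each peptide is fused to the C-terminus of a sfGFP-mCherry timer, after a GGGS linker. Cells are FACS-sorted into 8 mCherry/sfGFP bins and sequenced. PSI runs from 0 (unstable) to 1 (stable), measured once in wild type and in the das1Δ or doa10Δ background.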
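For protein stability index of tFT-peptide fusion in deletion strain of DOA10 in this document: PSI per variant is the weighted mean of its sequencing read distribution over the sorted stability bins, counting only variants with over 10 reads summed across bins.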
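For protein stability index of tFT-peptide fusion in wild type in this document: PSI derived as read-weighted mean over the 8 sorting bins, only variants exceeding 10 total reads kept, mCherry placed adjacent to the peptide and sfGFP distal.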

RSLRHLLPLYFR was tested, and the protein stability index (Saccharomyces cerevisiae [1]) was 0.45 and the protein stability index (Saccharomyces cerevisiae [2]) was 0.693.

With GLYMCSVGCWFT the protein stability index (Saccharomyces cerevisiae [1]) was 0.423 and the protein stability index (Saccharomyces cerevisiae [2]) was 0.484.

For AITLPKCPLLLR, the protein stability index (Saccharomyces cerevisiae [1]) was 0.335 and the protein stability index (Saccharomyces cerevisiae [2]) was 0.663.

Work on AITLPMCPLLLRF yielded a protein stability index (Saccharomyces cerevisiae [1]) of 0.121 and a protein stability index (Saccharomyces cerevisiae [2]) of 0.615.

Sequence GLFMCSVGCWFR has a protein stability index (Saccharomyces cerevisiae [1]) of 0.264 and a protein stability index (Saccharomyces cerevisiae [2]) of 0.549.

Sequence MVTRLDAIYFRI has a protein stability index (Saccharomyces cerevisiae [1]) of 0.237 and a protein stability index (Saccharomyces cerevisiae [2]) of 0.653.

RVTRLDAIYHRI was tested, and the protein stability index (Saccharomyces cerevisiae [1]) was 0.662 and the protein stability index (Saccharomyces cerevisiae [2]) was 0.723.

GLYMCSVGWWFR was tested, and the protein stability index (Saccharomyces cerevisiae [1]) was 0.499 and the protein stability index (Saccharomyces cerevisiae [2]) was 0.557.

RSLRVLLPRYFR showed a protein stability index (Saccharomyces cerevisiae [1]) of 0.637 and a protein stability index (Saccharomyces cerevisiae [2]) of 0.664.

With CLVSLPIDLFFR the protein stability index (Saccharomyces cerevisiae [1]) was 0.648 and the protein stability index (Saccharomyces cerevisiae [2]) was 0.698.

Sequence AITLPMCPLDLR has a protein stability index (Saccharomyces cerevisiae [1]) of 0.676 and a protein stability index (Saccharomyces cerevisiae [2]) of 0.685.

CLVSLPYLLFFR gave a protein stability index (Saccharomyces cerevisiae [1]) of 0.0667 and a protein stability index (Saccharomyces cerevisiae [2]) of 0.64.

With CLVSLTILLFFR the protein stability index (Saccharomyces cerevisiae [1]) was 0.185 and the protein stability index (Saccharomyces cerevisiae [2]) was 0.263.

For AITLPMCPQLLR, the protein stability index (Saccharomyces cerevisiae [1]) was 0.64 and the protein stability index (Saccharomyces cerevisiae [2]) was 0.688.

RVTNLDAIYFRI showed a protein stability index (Saccharomyces cerevisiae [1]) of 0.55 and a protein stability index (Saccharomyces cerevisiae [2]) of 0.677.

GLYMCSVGCWAR gave a protein stability index (Saccharomyces cerevisiae [1]) of 0.438 and a protein stability index (Saccharomyces cerevisiae [2]) of 0.5.

RSLRVLLPNYFR was tested, and the protein stability index (Saccharomyces cerevisiae [1]) was 0.64 and the protein stability index (Saccharomyces cerevisiae [2]) was 0.673.

With AITLPMCPLMLR the protein stability index (Saccharomyces cerevisiae [1]) was 0.212 and the protein stability index (Saccharomyces cerevisiae [2]) was 0.611.

RSLRVLLPLYFRC gave a protein stability index (Saccharomyces cerevisiae [1]) of 0.218 and a protein stability index (Saccharomyces cerevisiae [2]) of 0.476.

GLYMCSVGCWFRE gave a protein stability index (Saccharomyces cerevisiae [1]) of 0.453 and a protein stability index (Saccharomyces cerevisiae [2]) of 0.641.

GLYMCSVGCWPR was tested, and the protein stability index (Saccharomyces cerevisiae [1]) was 0.64 and the protein stability index (Saccharomyces cerevisiae [2]) was 0.67.

Sequence GLYMCYVGCWFR has a protein stability index (Saccharomyces cerevisiae [1]) of 0.223 and a protein stability index (Saccharomyces cerevisiae [2]) of 0.423.

For GLYMQSVGCWFR, the protein stability index (Saccharomyces cerevisiae [1]) was 0.287 and the protein stability index (Saccharomyces cerevisiae [2]) was 0.678.

With NLVSLPILLFFR the protein stability index (Saccharomyces cerevisiae [1]) was 0.0961 and the protein stability index (Saccharomyces cerevisiae [2]) was 0.629.

Work on RVTMLDAIYFRI yielded a protein stability index (Saccharomyces cerevisiae [1]) of 0.52 and a protein stability index (Saccharomyces cerevisiae [2]) of 0.614.

In the case of RVTRLDAIYYRI, the protein stability index (Saccharomyces cerevisiae [1]) is reported as 0.582 and the protein stability index (Saccharomyces cerevisiae [2]) is reported as 0.716.

RSLRVLLPLYFP showed a protein stability index (Saccharomyces cerevisiae [1]) of 0.634 and a protein stability index (Saccharomyces cerevisiae [2]) of 0.657.

Sequence GLYMCSVGCWMR has a protein stability index (Saccharomyces cerevisiae [1]) of 0.253 and a protein stability index (Saccharomyces cerevisiae [2]) of 0.575.

For RVTRLDAIYQRI, the protein stability index (Saccharomyces cerevisiae [1]) was 0.664 and the protein stability index (Saccharomyces cerevisiae [2]) was 0.707.

CLVSHPILLFFR was tested, and the protein stability index (Saccharomyces cerevisiae [1]) was 0.149 and the protein stability index (Saccharomyces cerevisiae [2]) was 0.617.

GLYMCSVGPWFR showed a protein stability index (Saccharomyces cerevisiae [1]) of 0.656 and a protein stability index (Saccharomyces cerevisiae [2]) of 0.688.

Sequence RVTRLDAPYFRI has a protein stability index (Saccharomyces cerevisiae [1]) of 0.676 and a protein stability index (Saccharomyces cerevisiae [2]) of 0.722.

In the case of RVTRLDAIYFRIL, the protein stability index (Saccharomyces cerevisiae [1]) is reported as 0.0595 and the protein stability index (Saccharomyces cerevisiae [2]) is reported as 0.0992.

RVTRLDAIYTRI gave a protein stability index (Saccharomyces cerevisiae [1]) of 0.688 and a protein stability index (Saccharomyces cerevisiae [2]) of 0.716.

RSLRELLPLYFR gave a protein stability index (Saccharomyces cerevisiae [1]) of 0.476 and a protein stability index (Saccharomyces cerevisiae [2]) of 0.698.

With RSLRVKLPLYFR the protein stability index (Saccharomyces cerevisiae [1]) was 0.195 and the protein stability index (Saccharomyces cerevisiae [2]) was 0.667.

For EITLPMCPLLLR, the protein stability index (Saccharomyces cerevisiae [1]) was 0.338 and the protein stability index (Saccharomyces cerevisiae [2]) was 0.656.

AITRPMCPLLLR was tested, and the protein stability index (Saccharomyces cerevisiae [1]) was 0.393 and the protein stability index (Saccharomyces cerevisiae [2]) was 0.65.

In the case of RSLRVLLPMYFR, the protein stability index (Saccharomyces cerevisiae [1]) is reported as 0.334 and the protein stability index (Saccharomyces cerevisiae [2]) is reported as 0.658.

In the case of GHYMCSVGCWFR, the protein stability index (Saccharomyces cerevisiae [1]) is reported as 0.365 and the protein stability index (Saccharomyces cerevisiae [2]) is reported as 0.643.

In the case of CLVSLPILLFER, the protein stability index (Saccharomyces cerevisiae [1]) is reported as 0.569 and the protein stability index (Saccharomyces cerevisiae [2]) is reported as 0.625.

Work on AITNPMCPLLLR yielded a protein stability index (Saccharomyces cerevisiae [1]) of 0.488 and a protein stability index (Saccharomyces cerevisiae [2]) of 0.658.

AITHPMCPLLLR gave a protein stability index (Saccharomyces cerevisiae [1]) of 0.455 and a protein stability index (Saccharomyces cerevisiae [2]) of 0.676.

Sequence RSLRVLLPAYFR has a protein stability index (Saccharomyces cerevisiae [1]) of 0.577 and a protein stability index (Saccharomyces cerevisiae [2]) of 0.65.

With GLYMCSVGCWQR the protein stability index (Saccharomyces cerevisiae [1]) was 0.629 and the protein stability index (Saccharomyces cerevisiae [2]) was 0.677.

In the case of RSLRVLLPWYFR, the protein stability index (Saccharomyces cerevisiae [1]) is reported as 0.606 and the protein stability index (Saccharomyces cerevisiae [2]) is reported as 0.666.

Work on AITLSMCPLLLR yielded a protein stability index (Saccharomyces cerevisiae [1]) of 0.311 and a protein stability index (Saccharomyces cerevisiae [2]) of 0.653.

Sequence RVTRLDAIYFMI has a protein stability index (Saccharomyces cerevisiae [1]) of 0.162 and a protein stability index (Saccharomyces cerevisiae [2]) of 0.173.

Sequence AITLPMCPLLQR has a protein stability index (Saccharomyces cerevisiae [1]) of 0.626 and a protein stability index (Saccharomyces cerevisiae [2]) of 0.671.

RSLLVLLPLYFR gave a protein stability index (Saccharomyces cerevisiae [1]) of 0.344 and a protein stability index (Saccharomyces cerevisiae [2]) of 0.638.

For RVTRLDAIMFRI, the protein stability index (Saccharomyces cerevisiae [1]) was 0.496 and the protein stability index (Saccharomyces cerevisiae [2]) was 0.686.

Work on RVTRLDAIYFRY yielded a protein stability index (Saccharomyces cerevisiae [1]) of 0.447 and a protein stability index (Saccharomyces cerevisiae [2]) of 0.722.

CLVSLPILLFRR gave a protein stability index (Saccharomyces cerevisiae [1]) of 0.43 and a protein stability index (Saccharomyces cerevisiae [2]) of 0.66.

GLYMCSVGCWFRM showed a protein stability index (Saccharomyces cerevisiae [1]) of 0.154 and a protein stability index (Saccharomyces cerevisiae [2]) of 0.374.

For GLYFCSVGCWFR, the protein stability index (Saccharomyces cerevisiae [1]) was 0.202 and the protein stability index (Saccharomyces cerevisiae [2]) was 0.607.

Sequence IITLPMCPLLLR has a protein stability index (Saccharomyces cerevisiae [1]) of 0.324 and a protein stability index (Saccharomyces cerevisiae [2]) of 0.597.

For RSLRVLGPLYFR, the protein stability index (Saccharomyces cerevisiae [1]) was 0.344 and the protein stability index (Saccharomyces cerevisiae [2]) was 0.687.

Sequence AITLPMCCLLLR has a protein stability index (Saccharomyces cerevisiae [1]) of 0.139 and a protein stability index (Saccharomyces cerevisiae [2]) of 0.602.

Sequence RSLRVLLDLYFR has a protein stability index (Saccharomyces cerevisiae [1]) of 0.64 and a protein stability index (Saccharomyces cerevisiae [2]) of 0.654.
